Data: article PMC11323535, “Neisserial adhesin A (NadA) binds human Siglec-5 and Siglec-14 with high affinity and promotes bacterial adhesion/invasion” (mBio, 2024)

Target: T1, recombinant soluble NadA (NadA_(24–350)) (Neisseria meningitidis strain 2996, UniProt Q8KH85 24-350)
T1 construct: Neisserial adhesin A (NadA) variant 3, N. meningitidis strain 2996, residues 24-350: ectodomain without the leader peptide and the anchor domain; Heated at 80°C for 2 h (thermally stressed, monomeric) in one SPR experiment; also called rNadA; NadA ectodomain
Assay: peptide or protein array; recombinant soluble human and mouse proteins spotted; rNadA_(24–350) 1 µM in Nap-PBS overlaid for 1 h; rabbit anti-NadA serum and AlexaFluor 647 anti-rabbit IgG; MFI ≥ 30,000 high reactivity, MFI < 5,000 no reactivity
Details: both partners purified

Binder	binding result
Chromosome two open reading frame 66 (protein microarray) (natural protein, human, UniProt Q6UXQ4 39-117, looked up, human C2orf66, recombinant soluble protein; also called C2orf66; source: recombinant soluble protein produced at GNF, spotted on the microarray) ATVRNEDKWKPLNNPRNRDLFFRRLQAYFKGRGLDLGTFPNPFPTNENPRPLSFQSELTASASADYEEQKNSFHNYLKG	binds
Stathmin 2 (protein microarray) (natural protein, human, UniProt Q93045-2 1-187, looked up, human stathmin 2, recombinant soluble protein; also called STMN2; source: recombinant soluble protein produced at GNF, spotted on the microarray) MAKTAMAYKEKMKELSMLSLICSCFYPEPRNINIYTYDDMEVKQINKRASGQAFELILKPPSPISEAPRTLASPKKKDLSLEEIQKKLEAAEERRKSQEAQVLKQLAEKREHEREVLQKALEENNNFSKMAEEKLILKMEQIKENREANLAAIIERLQEKLVKFISSELKESIESQFLELQREGEKQ	binds
